B1: PDZ and LIM domain protein 2, residues 284 to 339; numbered along this chain, Q96JY6 (parent)
chain: HTCEKCSTSIANQAVRIQEGRYRHPGCYTCADCGLNLKMRGHFWVGDELYCEKHAR

Variants of: B1
Assay: abundance fitness (aPCA) (normalised: wild type 0, dead -1); higher = more abundant; growth selection in yeast, the domain comes from the species named
Settings: Homo sapiens

Abundance fitness: each site, then its substitutions
P25: I -0.033; K -0.003; L 0.099; M 0.075; N -0.152; Q 0.035; S 0.118; T -0.09; V -0.169; W -0.807; Y -0.414
G26: A 0.033; C 0.006; D 0.227; E 0.277; F 0.19; H 0.525; I 0.08; K 0.209; L 0.122; M 0.037; N -0.083; P -0.016; Q 0.232; R 0.127; S 0.069; T 0.158; V 0.101; W 0.072
C27: A -0.428; E -0.105; F -1.02; G -0.514; I -0.904; K -0.39; L -0.535; M -0.627; N -0.826; P -0.425; Q -0.268; R -0.838; S -0.598; T -0.442; V -0.661; W -0.602; Y -0.885
Y28: A -0.076; C -0.187; D -0.772; E -0.548; F -0.364; G -0.471; H -0.225; I -0.452; K -0.434; L -0.262; M -0.13; N -0.294; P -0.752; Q -0.246; R -0.473; S -0.179; T 0.116; V -0.144; W 0.053
T29: A -0.103; C -0.23; D 0.216; E -0.455; F -0.194; G -0.198; H -0.041; I -0.004; L -0.117; M -0.354; N -0.177; P -0.767; R -0.261; S -0.092; V -0.309; W -0.758; Y -0.17
C30: A -1.01; E -0.834; G -0.618; H -0.669; I -1.06; K -1.13; L -1.03; M -0.712; N -0.788; P -0.671; S -0.921; T -0.642; V -0.789; W -1.05; Y -0.956
A31: C -0.146; D -0.175; E 0.082; F 0.039; G 0.019; H -0.257; I -0.454; L 0.119; M 0.027; N 0.086; P -0.238; R 0.047; S -0.103; T -0.099; V -0.029; W -0.052; Y -0.226
D32: A -0.361; C -0.188; E -0.171; F 0.006; G -0.178; H 0.027; I -0.284; L -0.099; M -0.022; P -0.824; Q -0.336; R 0.124; S -0.193; T 0.057; V -0.245; W -0.235; Y -0.106
C33: A -0.94; D -0.695; E -1.05; F -0.876; G -0.682; H -0.709; L -0.549; M -0.947; N -0.741; P -0.757; R -0.964; S -0.828; T -0.747; V -0.885; W -0.765; Y -0.823
G34: A -0.09; C -0.413; E -0.146; F -0.196; H 0.2; I -0.352; K 0.073; L -0.165; N 0.108; P -0.356; Q -0.03; R -0.064; S 0.024; T -0.177; W -0.799; Y -0.331
L35: A 0.102; C -0.214; D 0.202; E 0.086; F 0.178; G 0.053; H -0.015; I 0.05; M 0.102; N 0.062; P -0.518; R -0.187; S 0.005; T 0.167; V 0.053; W -0.054; Y 0.01
N36: A -0.104; C -0.116; D -0.257; E 0.099; F -0.189; G -0.093; H -0.275; I -0.127; K -0.478; L -0.145; M -0.07; P 0.108; S -0.038; T -0.125; V -0.113
L37: A -0.601; C -0.3; D -0.249; E -0.407; F -0.262; G -0.288; H -0.807; I -0.322; K -0.502; M -0.178; P -0.442; Q -0.599; R -0.565; S -0.614; T -0.395; V -0.109; W -0.731; Y -0.38
K38: A 0.189; C -0.24; E 0.311; F -0.495; G 0.103; H -0.197; I -0.703; L -0.702; M -0.08; N -0.124; Q -0.263; R -0.366; S 0.056; T -0.115; V -0.447; W -0.445; Y -0.037
M39: A 0.226; C -0.186; E 0.286; F -0.186; G 0.223; H -0.116; I -0.347; K 0.071; L -0.123; N 0.095; P 0.422; Q 0.048; S 0.057; T 0.173; W -0.523; Y 0.002
R40: A 0.041; C 0.221; D 0.027; E 0.066; F -0.156; G 0.219; H 0.274; I -0.293; K 0.188; L 0.129; M 0.063; N 0.21; P 0.14; Q -0.091; S 0.079; T -0.009; V 0.092; Y -0.163
G41: A -0.139; C -0.408; D -0.088; E -0.191; F -0.259; H -0.682; I -0.673; K -0.169; L -0.437; M -0.386; N -0.146; P -0.025; Q -0.076; R -0.216; S -0.436; T -0.083; V -0.434; W -0.797; Y -0.395
H42: A -0.147; C -0.005; D 0.078; E 0.16; G -0.301; I -0.282; K -0.113; L 0.178; M -0.162; P -0.053; Q -0.032; R -0.19; S 0.022; T 0.008; V -0.064; W -0.233; Y -0.393
F43: A -0.189; C 0.101; D 0.087; E -0.057; G -0.048; I -0.084; K -0.381; L -0.048; M -0.208; N 0.071; P -0.058; Q -0.26; R -0.138; S -0.056; T -0.04; V -0.423; W 0.099; Y -0.145
W44: A 0.163; C 0.005; E 0.139; F 0.025; H 0.15; I 0.352; K -0.208; L 0.096; M -0.034; N -0.24; P 0.205; Q 0.096; R -0.045; S 0.027; T -0.232; V 0.044

From the Human Domainome abundance scans (Beltran et al. 2025)
